Assay results taken from patent publication US20210032299A1 (Eli Lilly, published 2021).
Starred links: 1 amine or outer side, 2 acyl side, 3 side chain; linkers in the order of their positions; H or OH if unused. Non-standard residues stand in square brackets, D forms with d. Groups on a side chain read outwards from the residue. No end group written: not given here. *: point of attachment. C20 diacid = O=C(O)CCCCCCCCCCCCCCCCCCC(=O)*; γGlu = O=C(O)[C@H](CCC(=O)[*:2])N[*:1]; αMeY = C[C@](N)(Cc1ccc(O)cc1)C(=O)O; 4Pal = N[C@@H](Cc1ccncc1)C(=O)O; αMeL = CC(C)C[C@](C)(N)C(=O)O; AEEA = NCCOCCOCC(=O)O; Aib = CC(C)(N)C(=O)O

T1: human glucose-dependent insulinotropic polypeptide (GIP) receptor (human, UniProt P48546 22-466)
T1 construct: whole, on cells; Assayed as crude membranes of stably transfected CHO cells; also called hGIPR; human GIP receptor
T1 sequence (looked up): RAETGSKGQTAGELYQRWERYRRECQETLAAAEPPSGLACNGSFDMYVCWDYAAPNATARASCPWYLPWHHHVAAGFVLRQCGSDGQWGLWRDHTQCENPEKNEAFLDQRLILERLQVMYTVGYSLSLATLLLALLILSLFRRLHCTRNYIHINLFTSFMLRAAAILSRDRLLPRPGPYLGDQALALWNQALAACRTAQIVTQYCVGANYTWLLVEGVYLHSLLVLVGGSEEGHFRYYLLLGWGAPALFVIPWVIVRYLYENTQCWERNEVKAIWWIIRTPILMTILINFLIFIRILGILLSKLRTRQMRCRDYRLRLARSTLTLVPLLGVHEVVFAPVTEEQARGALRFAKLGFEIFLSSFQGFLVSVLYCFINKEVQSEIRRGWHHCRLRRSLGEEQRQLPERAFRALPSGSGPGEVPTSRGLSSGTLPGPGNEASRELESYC


Tests used:
[1] = biological target: T1, human glucose-dependent insulinotropic …; test: SPA, displacement of [125I]-GIP from hGIPR membranes, 0.1% bacitracin
[2] = biological target: T2, human glucagon receptor (human, UniProt P47871 26-477); test: SPA, displacement of [125I]-Gcg from hGcgR membranes, 0.1% bacitracin
T2 construct: whole, on cells; Assayed as crude membranes of stably transfected HEK293 cells; also called hGcgR; GcgR
T2 sequence (P47871 26-477): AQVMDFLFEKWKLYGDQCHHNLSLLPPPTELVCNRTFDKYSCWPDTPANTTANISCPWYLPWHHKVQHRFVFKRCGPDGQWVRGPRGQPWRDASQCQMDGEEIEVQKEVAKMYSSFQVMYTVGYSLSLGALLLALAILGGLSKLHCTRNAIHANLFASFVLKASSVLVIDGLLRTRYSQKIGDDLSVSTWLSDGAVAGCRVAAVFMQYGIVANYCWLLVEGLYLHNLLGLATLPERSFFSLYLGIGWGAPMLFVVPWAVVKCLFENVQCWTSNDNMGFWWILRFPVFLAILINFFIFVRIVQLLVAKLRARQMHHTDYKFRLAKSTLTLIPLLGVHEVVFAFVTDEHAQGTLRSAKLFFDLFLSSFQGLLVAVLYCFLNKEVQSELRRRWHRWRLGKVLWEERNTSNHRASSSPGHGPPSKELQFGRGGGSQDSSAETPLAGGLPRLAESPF
Procedure, shortened: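 Binding buffer: 25 mM HEPES pH 7.4, 2.5 mM CaCl₂, 1 mM MgCl₂, 0.003% Tween-20, protease inhibitors without EDTA. Counted by scintillation after 12 h incubation/settling at room temperature. Four-parameter nonlinear fit; Kᵢ given as geometric mean ± SEM of independent replicates run on different days.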

[3] = biological target: T3, human GLP-1 receptor (human, UniProt P43220 24-463); test: SPA, displacement of [125I]-GLP-1 from hGLP-1R membranes, 0.1% bacitracin
T3 construct: whole, on cells; Assayed as crude membranes of stably transfected HEK293 cells; also called hGLP1R; hGLP-1R
Procedure, shortened: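 Binding buffer: 25 mM HEPES pH 7.4, 2.5 mM CaCl₂, 1 mM MgCl₂, 0.1% bacitracin, 0.003% Tween-20, protease inhibitors without EDTA. Four-parameter nonlinear regression; Kᵢ given as geometric mean ± SEM, n = independent replicates run on different days.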

| Binder | Ki [1] | Ki [2] | Ki [3] |
| --- | --- | --- | --- |
| Y[Aib]EGTFISDYSILLDKK([AEEA-AEEA-γGlu-C20 diacid])AQ[Aib]DFVNWLLAQGPSSGAPPPS-NH2 (N-terminus assumed; SMILES CC[C@H](C)[C@H](NC(=O)[C@H](CO)NC(=O)[C@H](Cc1ccc(O)cc1)NC(=O)[C@H](CC(=O)O)NC(=O)[C@H](CO)NC(=O)[C@@H](NC(=O)[C@H](Cc1ccccc1)NC(=O)[C@@H](NC(=O)CNC(=O)[C@H](CCC(=O)O)NC(=O)C(C)(C)NC(=O)[C@@H](N)Cc1ccc(O)cc1)[C@@H](C)O)[C@@H](C)CC)C(=O)N[C@@H](CC(C)C)C(=O)N[C@@H](CC(C)C)C(=O)N[C@@H](CC(=O)O)C(=O)N[C@@H](CCCCN)C(=O)N[C@@H](CCCCNC(=O)COCCOCCNC(=O)COCCOCCNC(=O)CC[C@H](NC(=O)CCCCCCCCCCCCCCCCCCC(=O)O)C(=O)O)C(=O)N[C@@H](C)C(=O)N[C@@H](CCC(N)=O)C(=O)NC(C)(C)C(=O)N[C@@H](CC(=O)O)C(=O)N[C@@H](Cc1ccccc1)C(=O)N[C@H](C(=O)N[C@@H](CC(N)=O)C(=O)N[C@@H](Cc1c[nH]c2ccccc12)C(=O)N[C@@H](CC(C)C)C(=O)N[C@@H](CC(C)C)C(=O)N[C@@H](C)C(=O)N[C@@H](CCC(N)=O)C(=O)NCC(=O)N1CCC[C@H]1C(=O)N[C@@H](CO)C(=O)N[C@@H](CO)C(=O)NCC(=O)N[C@@H](C)C(=O)N1CCC[C@H]1C(=O)N1CCC[C@H]1C(=O)N1CCC[C@H]1C(=O)N[C@@H](CO)C(N)=O)C(C)C) [Example 8] | 0.027 nM | 101 nM | 38.1 nM |
| Y[Aib]EGTFISDYSI[αMeL]LDEK([AEEA-AEEA-γGlu-C20 diacid])HQ[Aib]DFVE[4Pal]LLAGGPSSGAPPPS-NH2 (N-terminus assumed; SMILES CC[C@H](C)[C@H](NC(=O)[C@H](Cc1ccccc1)NC(=O)[C@@H](NC(=O)CNC(=O)[C@H](CCC(=O)O)NC(=O)C(C)(C)NC(=O)[C@@H](N)Cc1ccc(O)cc1)[C@@H](C)O)C(=O)N[C@@H](CO)C(=O)N[C@@H](CC(=O)O)C(=O)N[C@@H](Cc1ccc(O)cc1)C(=O)N[C@@H](CO)C(=O)N[C@H](C(=O)N[C@@](C)(CC(C)C)C(=O)N[C@@H](CC(C)C)C(=O)N[C@@H](CC(=O)O)C(=O)N[C@@H](CCC(=O)O)C(=O)N[C@@H](CCCCNC(=O)COCCOCCNC(=O)COCCOCCNC(=O)CC[C@H](NC(=O)CCCCCCCCCCCCCCCCCCC(=O)O)C(=O)O)C(=O)N[C@@H](Cc1c[nH]cn1)C(=O)N[C@@H](CCC(N)=O)C(=O)NC(C)(C)C(=O)N[C@@H](CC(=O)O)C(=O)N[C@@H](Cc1ccccc1)C(=O)N[C@H](C(=O)N[C@@H](CCC(=O)O)C(=O)N[C@@H](Cc1ccncc1)C(=O)N[C@@H](CC(C)C)C(=O)N[C@@H](CC(C)C)C(=O)N[C@@H](C)C(=O)NCC(=O)NCC(=O)N1CCC[C@H]1C(=O)N[C@@H](CO)C(=O)N[C@@H](CO)C(=O)NCC(=O)N[C@@H](C)C(=O)N1CCC[C@H]1C(=O)N1CCC[C@H]1C(=O)N1CCC[C@H]1C(=O)N[C@@H](CO)C(N)=O)C(C)C)[C@@H](C)CC) [Example 86] | 0.0533 nM | 462 nM | 108 nM |
| Y[Aib]EGTFISDYSI[αMeL]LDKK([AEEA-AEEA-γGlu-C20 diacid])HQ[Aib]DFVE[αMeY]LLEGGPSSGAPPPS-NH2 (N-terminus assumed; SMILES CC[C@H](C)[C@H](NC(=O)[C@H](Cc1ccccc1)NC(=O)[C@@H](NC(=O)CNC(=O)[C@H](CCC(=O)O)NC(=O)C(C)(C)NC(=O)[C@@H](N)Cc1ccc(O)cc1)[C@@H](C)O)C(=O)N[C@@H](CO)C(=O)N[C@@H](CC(=O)O)C(=O)N[C@@H](Cc1ccc(O)cc1)C(=O)N[C@@H](CO)C(=O)N[C@H](C(=O)N[C@@](C)(CC(C)C)C(=O)N[C@@H](CC(C)C)C(=O)N[C@@H](CC(=O)O)C(=O)N[C@@H](CCCCN)C(=O)N[C@@H](CCCCNC(=O)COCCOCCNC(=O)COCCOCCNC(=O)CC[C@H](NC(=O)CCCCCCCCCCCCCCCCCCC(=O)O)C(=O)O)C(=O)N[C@@H](Cc1c[nH]cn1)C(=O)N[C@@H](CCC(N)=O)C(=O)NC(C)(C)C(=O)N[C@@H](CC(=O)O)C(=O)N[C@@H](Cc1ccccc1)C(=O)N[C@H](C(=O)N[C@@H](CCC(=O)O)C(=O)N[C@@](C)(Cc1ccc(O)cc1)C(=O)N[C@@H](CC(C)C)C(=O)N[C@@H](CC(C)C)C(=O)N[C@@H](CCC(=O)O)C(=O)NCC(=O)NCC(=O)N1CCC[C@H]1C(=O)N[C@@H](CO)C(=O)N[C@@H](CO)C(=O)NCC(=O)N[C@@H](C)C(=O)N1CCC[C@H]1C(=O)N1CCC[C@H]1C(=O)N1CCC[C@H]1C(=O)N[C@@H](CO)C(N)=O)C(C)C)[C@@H](C)CC) [Example 91] | 0.122 nM | 54.4 nM | 37.4 nM |
| Y[Aib]EGTFISDYSI[αMeL]LDKK([AEEA-AEEA-γGlu-C20 diacid])HQ[Aib]DFVE[αMeY]LLEAGPSSGAPPPS-NH2 (N-terminus assumed; SMILES CC[C@H](C)[C@H](NC(=O)[C@H](Cc1ccccc1)NC(=O)[C@@H](NC(=O)CNC(=O)[C@H](CCC(=O)O)NC(=O)C(C)(C)NC(=O)[C@@H](N)Cc1ccc(O)cc1)[C@@H](C)O)C(=O)N[C@@H](CO)C(=O)N[C@@H](CC(=O)O)C(=O)N[C@@H](Cc1ccc(O)cc1)C(=O)N[C@@H](CO)C(=O)N[C@H](C(=O)N[C@@](C)(CC(C)C)C(=O)N[C@@H](CC(C)C)C(=O)N[C@@H](CC(=O)O)C(=O)N[C@@H](CCCCN)C(=O)N[C@@H](CCCCNC(=O)COCCOCCNC(=O)COCCOCCNC(=O)CC[C@H](NC(=O)CCCCCCCCCCCCCCCCCCC(=O)O)C(=O)O)C(=O)N[C@@H](Cc1c[nH]cn1)C(=O)N[C@@H](CCC(N)=O)C(=O)NC(C)(C)C(=O)N[C@@H](CC(=O)O)C(=O)N[C@@H](Cc1ccccc1)C(=O)N[C@H](C(=O)N[C@@H](CCC(=O)O)C(=O)N[C@@](C)(Cc1ccc(O)cc1)C(=O)N[C@@H](CC(C)C)C(=O)N[C@@H](CC(C)C)C(=O)N[C@@H](CCC(=O)O)C(=O)N[C@@H](C)C(=O)NCC(=O)N1CCC[C@H]1C(=O)N[C@@H](CO)C(=O)N[C@@H](CO)C(=O)NCC(=O)N[C@@H](C)C(=O)N1CCC[C@H]1C(=O)N1CCC[C@H]1C(=O)N1CCC[C@H]1C(=O)N[C@@H](CO)C(N)=O)C(C)C)[C@@H](C)CC) [Example 90] | 0.129 nM | 112 nM | 102 nM |
| Y[Aib]EGTLISDYSI[αMeL]LDKK([AEEA-AEEA-γGlu-C20 diacid])HQ[Aib]DFVE[4Pal]LLEAGPSSGAPPPS-NH2 (N-terminus assumed; SMILES CC[C@H](C)[C@H](NC(=O)[C@H](CC(C)C)NC(=O)[C@@H](NC(=O)CNC(=O)[C@H](CCC(=O)O)NC(=O)C(C)(C)NC(=O)[C@@H](N)Cc1ccc(O)cc1)[C@@H](C)O)C(=O)N[C@@H](CO)C(=O)N[C@@H](CC(=O)O)C(=O)N[C@@H](Cc1ccc(O)cc1)C(=O)N[C@@H](CO)C(=O)N[C@H](C(=O)N[C@@](C)(CC(C)C)C(=O)N[C@@H](CC(C)C)C(=O)N[C@@H](CC(=O)O)C(=O)N[C@@H](CCCCN)C(=O)N[C@@H](CCCCNC(=O)COCCOCCNC(=O)COCCOCCNC(=O)CC[C@H](NC(=O)CCCCCCCCCCCCCCCCCCC(=O)O)C(=O)O)C(=O)N[C@@H](Cc1c[nH]cn1)C(=O)N[C@@H](CCC(N)=O)C(=O)NC(C)(C)C(=O)N[C@@H](CC(=O)O)C(=O)N[C@@H](Cc1ccccc1)C(=O)N[C@H](C(=O)N[C@@H](CCC(=O)O)C(=O)N[C@@H](Cc1ccncc1)C(=O)N[C@@H](CC(C)C)C(=O)N[C@@H](CC(C)C)C(=O)N[C@@H](CCC(=O)O)C(=O)N[C@@H](C)C(=O)NCC(=O)N1CCC[C@H]1C(=O)N[C@@H](CO)C(=O)N[C@@H](CO)C(=O)NCC(=O)N[C@@H](C)C(=O)N1CCC[C@H]1C(=O)N1CCC[C@H]1C(=O)N1CCC[C@H]1C(=O)N[C@@H](CO)C(N)=O)C(C)C)[C@@H](C)CC) [Example 89] | 0.072 nM | 611 nM | 294 nM |
